The data set relates to Brassica. Briefly: Chlorophyll fluorescence and P700 oxidation-reduction in transgenic Brassica. Format: in vivo, Brassica napus L. As for the experimental part: Electron transfer efficiency of leaves was measured by chlorophyll fluorescence. The change of chlorophyll fluorescence parameter was monitored with PAM-2000 fluorometer (Walz, Effeltrich, Germany). Electron transfer efficiency of leaves in response to light was measured after 30-min-dark adaption, Fo represents minimum PSII fluorescence after measuring light is turned on. Fm represents maximum PSII fluorescence after a saturating pulse of white light is turned on. The photochemical efficiency of PSII was calculated with the equation: ΦPSII=(Fm′−Fs)/Fm′ (Genty, B., Briantais, J. M., Baker, N. R. (1989). The relationship between the quantum yield of photosynthetic electron transport and quenching of Chl fluorescence. Biochimica et Biophysica Acta, 990, 87-92). The excitation pressure of chlorophyll was calculated with the equation: 1−qL=1−(Fm′−Fs)/(Fm′−Fo)×Fo′/Fs (Kramer, D. M., Johnson, G., Kiirats, O., Edwards, G. E. (2004) New fluorescence parameters for the determination of Q(A) redox state and excitation energy fluxes. Photosynthesis Research, 79, 209-218).
PAM chlorophyll fluorometer with ED-P700 DW-E light absorb unit was used to measure the change of the light absorb at 810-830 nm, then the change of oxidation-reduction state of P700 was obtained. […]

In the case of “mCherry: red fluorescent protein, amino acid sequence SEQ ID NO: 2”, the “initial rate of P700^+ reduction (PSI cyclic electron transport) vs WT” value (transgenic Brassica leaves) is “much higher”. For the same substance, the “photochemical efficiency of PSII (ΦPSII)” value (transgenic Brassica transferred from red+blue light to white light) was “increased”.
